B1: ZER1 (parent)
chain: FDGPEAWGVCEPQREEVEERMWAA

Variants of: B1
Experiment: protein stability index of a GFP-peptide fusion (GPS, HEK-293T) (PSI 1-6); higher = more stable
Conditions: c terminus: a fixed tail appended
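Also: lentivirally expressed fusions sorted by FACS into six bins by GFP to DsRed ratio, PSI derived from sequencing read proportions per bin multiplied by bin number.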

Variant | protein stability index
FDGPEAWGVCEPQREEVEERMQAA [W22Q] | 2.73
FDGPEAWGVCEPQREEVEERMYAA [W22Y] | 3.73
FDGPEAWGVCEPQREEVEERMTAA [W22T] | 3.4
FDGPEAWGVCEPQREEVEERMSAA [W22S] | 3.25
FDGPEAWGVCEPQREEVEERMLAA [W22L] | 2.42
FDGPEAWGVCEPQREEVEERMNAA [W22N] | 3.17
FDGPEAWGVCEPQREEVEERMPAA [W22P] | 3.57
FDGPEAWGVCEPQREEVEERMIAA [W22I] | 2.63
FDGPEAWGVCEPQREEVEERMRAA [W22R] | 3.59
FDGPEAWGVCEPQREEVEERMKAA [W22K] | 2.75
FDGPEAWGVCEPQREEVEERMMAA [W22M] | 2.61
FDGPEAWGVCEPQREEVEERMVAA [W22V] | 3.44
FDGPEAWGVCEPQREEVEERMHAA [W22H] | 2.62
FDGPEAWGVCEPQREEVEERMWTA [A23T] | 2.67
FDGPEAWGVCEPQREEVEERMWCA [A23C] | 2.46
FDGPEAWGVCEPQREEVEERMWSA [A23S] | 2.62
FDGPEAWGVCEPQREEVEERMWRA [A23R] | 2.61
FDGPEAWGVCEPQREEVEERMWYA [A23Y] | 2.04
FDGPEAWGVCEPQREEVEERMWPA [A23P] | 2.66
FDGPEAWGVCEPQREEVEERMWKA [A23K] | 2.77
FDGPEAWGVCEPQREEVEERMWGA [A23G] | 2.9
FDGPEAWGVCEPQREEVEERMWFA [A23F] | 2.16
FDGPEAWGVCEPQREEVEERMWIA [A23I] | 2.64
FDGPEAWGVCEPQREEVEERMWEA [A23E] | 2.44
FDGPEAWGVCEPQREEVEERMWQA [A23Q] | 2.61
FDGPEAWGVCEPQREEVEERMWHA [A23H] | 2.58

Variant | protein stability index
FDGPEAWGVCEPQREEVEERMWLA [A23L] | 2.23
FDGPEAWGVCEPQREEVEERMWDA [A23D] | 3.41
FDGPEAWGVCEPQREEVEERMWVA [A23V] | 2.47
FDGPEAWGVCEPQREEVEERMWMA [A23M] | 3.08
FDGPEAWGVCEPQREEVEERMWNA [A23N] | 2.93
FDGPEAWGVCEPQREEVEERMWWA [A23W] | 2.3
FDGPEAWGVCEPQREEVEERMWAY [A24Y] | 2.49
FDGPEAWGVCEPQREEVEERMWAH [A24H] | 2.56
FDGPEAWGVCEPQREEVEERMWAP [A24P] | 3.05
FDGPEAWGVCEPQREEVEERMWAM [A24M] | 2.51
FDGPEAWGVCEPQREEVEERMWAS [A24S] | 2.7
FDGPEAWGVCEPQREEVEERMWAN [A24N] | 2.76
FDGPEAWGVCEPQREEVEERMWAC [A24C] | 3.55
FDGPEAWGVCEPQREEVEERMWAI [A24I] | 2.13
FDGPEAWGVCEPQREEVEERMWAF [A24F] | 1.96
FDGPEAWGVCEPQREEVEERMWAE [A24E] | 2.64
FDGPEAWGVCEPQREEVEERMWAW [A24W] | 2.15
FDGPEAWGVCEPQREEVEERMWAG [A24G] | 3.03
FDGPEAWGVCEPQREEVEERMWAT [A24T] | 2.49
FDGPEAWGVCEPQREEVEERMWAQ [A24Q] | 2.86
FDGPEAWGVCEPQREEVEERMWAK [A24K] | 2.78
FDGPEAWGVCEPQREEVEERMWAL [A24L] | 2.98
FDGPEAWGVCEPQREEVEERMWAV [A24V] | 2.53
FDGPEAWGVCEPQREEVEERMWAD [A24D] | 2.88
FDGPEAWGVCEPQREEVEERMWAR [A24R] | 2.76
